# In publication PMC10786891, “Massively parallel profiling of RNA-targeting CRISPR-Cas13d”:
# Numbering of substitutions follows the chain as printed. Numbers in names are those of the source.
# T1: EsCas13d, nuclease-dead (Eubacterium siraeum, UniProt B0MS50, R295A;H300A;R849A;H854A)
# T1 sequence: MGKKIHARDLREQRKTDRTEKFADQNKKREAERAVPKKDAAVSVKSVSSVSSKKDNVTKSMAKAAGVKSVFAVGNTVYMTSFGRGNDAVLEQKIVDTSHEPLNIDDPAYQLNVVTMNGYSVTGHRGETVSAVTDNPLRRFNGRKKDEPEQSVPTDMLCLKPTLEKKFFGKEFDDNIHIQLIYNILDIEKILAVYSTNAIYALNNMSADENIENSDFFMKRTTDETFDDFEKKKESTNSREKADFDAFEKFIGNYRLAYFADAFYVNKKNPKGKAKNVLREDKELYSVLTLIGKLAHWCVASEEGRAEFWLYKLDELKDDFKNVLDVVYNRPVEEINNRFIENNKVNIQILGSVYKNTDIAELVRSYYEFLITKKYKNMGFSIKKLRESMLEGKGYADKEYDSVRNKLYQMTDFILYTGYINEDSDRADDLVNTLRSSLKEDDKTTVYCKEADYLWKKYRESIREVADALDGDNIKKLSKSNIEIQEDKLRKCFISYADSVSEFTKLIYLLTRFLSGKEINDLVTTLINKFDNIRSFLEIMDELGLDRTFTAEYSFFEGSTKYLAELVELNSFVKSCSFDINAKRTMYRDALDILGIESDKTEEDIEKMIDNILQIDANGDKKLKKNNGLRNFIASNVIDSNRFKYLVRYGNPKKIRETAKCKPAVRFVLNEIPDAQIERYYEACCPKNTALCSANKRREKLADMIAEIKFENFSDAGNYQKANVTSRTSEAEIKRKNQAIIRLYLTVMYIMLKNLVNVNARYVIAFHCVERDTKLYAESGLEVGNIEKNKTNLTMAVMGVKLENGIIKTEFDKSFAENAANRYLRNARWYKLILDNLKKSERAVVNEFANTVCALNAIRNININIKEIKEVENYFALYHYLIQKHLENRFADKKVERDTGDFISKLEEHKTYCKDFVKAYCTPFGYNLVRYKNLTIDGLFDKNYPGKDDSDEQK
# B1: target 3 C1A,U10G (mixed)
# RNA 1: CACCCGUGCAAAAUUGCAGGGGUCUAAAACGACCUGAAUAUUUCAGAUCAAA
# RNA 2: GGGAAUGGAUCCACAUCUACGAAUUCGUUUUUGAUCUGAAAGAUUCAGGUAUGCAGAUCGGAAGAGCACACGU
# B2: target 3 insA 3' of 22,insA 3' of 3 (mixed)
# RNA 1: B1 RNA 1
# RNA 2: GGGAAUGGAUCCACAUCUACGAAUUCGUUUAUUGAUCUGAAAUAUUCAGGAUCUGCAGAUCGGAAGAGCACACGU
# B3: target 3 insA 3' of 7,insA 3' of 6 (mixed)
# RNA 1: B1 RNA 1
# RNA 2: GGGAAUGGAUCCACAUCUACGAAUUCGUUUUUGAUCUGAAAUAUUACAAGGUCUGCAGAUCGGAAGAGCACACGU
# B4: target 3 insU 3' of 4,insA 3' of 3 (mixed)
# RNA 1: B1 RNA 1
# RNA 2: B3 RNA 2 with A46C, C47A, A48G, A49U, G51A
# B5: target 3 insA 3' of 15,insG 3' of 2 (mixed)
# RNA 1: B1 RNA 1
# RNA 2: B2 RNA 2 with A31U, U33G, G34A, A35U, U36C, C37U, U38A, A51U, U52G
# B6: target 3 insC 3' of 7,insC 3' of 2 (mixed)
# RNA 1: B1 RNA 1
# RNA 2: B3 RNA 2 with A46C, A49G, G51U, U52C
# B7: target 3 U2G,A5U (mixed)
# RNA 1: B1 RNA 1
# RNA 2: B1 RNA 2 with G42U, A47U, U50G, A51C
# B8: target 3 insA 3' of 3,insA 3' of 3 (mixed)
# RNA 1: B1 RNA 1
# RNA 2: B3 RNA 2 with A46C, C47A, A48G, A49G, G50A, G51A
# B9: target 3 insG 3' of 2 (mixed)
# RNA 1: B1 RNA 1
# RNA 2: GGGAAUGGAUCCACAUCUACGAAUUCGUUUUUGAUCUGAAAUAUUCAGGUGCUGCAGAUCGGAAGAGCACACGU
# B10: target 3 insU 3' of 22,insU 3' of 11 (mixed)
# RNA 1: B1 RNA 1
# RNA 2: B2 RNA 2 with A31U, A44U, U45A, C47U, A48C, G49A, A51G
# B11: target 3 U2G,A18G (mixed)
# RNA 1: B1 RNA 1
# RNA 2: B1 RNA 2 with A34G, G42U, U50G, A51C
# B12: target 3 insU 3' of 22,insC 3' of 8 (mixed)
# RNA 1: B1 RNA 1
# RNA 2: B2 RNA 2 with A31U, U46C, C47U, A48C, G49A, A51G
# B13: target 3 A18G,U22A (mixed)
# RNA 1: B1 RNA 1
# RNA 2: B1 RNA 2 with U30A, A34G, G42U, A51C
# B14: target 3 insU 3' of 4,insC 3' of 3 (mixed)
# RNA 1: B1 RNA 1
# RNA 2: B3 RNA 2 with A46C, C47A, A48G, A49U, G51C
# B15: target 3 C1G,C6G (mixed)
# RNA 1: B1 RNA 1
# RNA 2: B1 RNA 2 with G42U, C46G, A51G
# B16: target 3 C6A,U8A (mixed)
# RNA 1: B1 RNA 1
# RNA 2: B1 RNA 2 with G42U, U44A, C46A, A51C
# B17: target 3 C6A,A11G (mixed)
# RNA 1: B1 RNA 1
# RNA 2: B1 RNA 2 with A41G, G42U, C46A, A51C
# B18: target 3 complement block 3-6 (mixed)
# RNA 1: B1 RNA 1
# RNA 2: B1 RNA 2 with G42U, C46G, A47U, G48C, G49C, A51C
# B19: target 3 G4U,U21G (mixed)
# RNA 1: B1 RNA 1
# RNA 2: B1 RNA 2 with U31G, G42U, G48U, A51C
# B20: target 3 insU 3' of 3,insG 3' of 2 (mixed)
# RNA 1: B1 RNA 1
# RNA 2: B3 RNA 2 with A46C, C47A, A48G, A49G, G50U, G51U, U52G
# B21: target 3 A5U,U7A (mixed)
# RNA 1: B1 RNA 1
# RNA 2: B1 RNA 2 with G42U, U45A, A47U, A51C
# B22: target 3 G4C,A5C (mixed)
# RNA 1: B1 RNA 1
# RNA 2: B1 RNA 2 with G42U, A47C, G48C, A51C
# B23: target 3 G3U,G4A (mixed)
# RNA 1: B1 RNA 1
# RNA 2: B1 RNA 2 with G42U, G48A, G49U, A51C
# B24: target 3 A18G,U20A (mixed)
# RNA 1: B1 RNA 1
# RNA 2: B1 RNA 2 with U32A, A34G, G42U, A51C
# B25: target 3 insU 3' of 19 (mixed)
# RNA 1: B1 RNA 1
# RNA 2: GGGAAUGGAUCCACAUCUACGAAUUCGUUUUUGUAUCUGAAAUAUUCAGGUCUGCAGAUCGGAAGAGCACACGU
# B26: target 1 U3A,U8G (mixed)
# RNA 1: CACCCGUGCAAAAAUGCAGGGGUCUAAAACUGAGCGGAUAACCUCUCUAUGG
# RNA 2: GGGAAUGGAUCCACAUCUACGAAUUCGUACCAUAGAGAGGUUAGCCGCACACCGAGAUCGGAAGAGCACACGU
# B27: target 1 U10C,U19C (mixed)
# RNA 1: B26 RNA 1
# RNA 2: B26 RNA 2 with U33C, U42C, G44U, A49U
# B28: target 1 insU 3' of 21,insC 3' of 1 (mixed)
# RNA 1: B26 RNA 1
# RNA 2: GGGAAUGGAUCCACAUCUACGAAUUCGUACCUAUAGAGAGGUUAUCCGCUCACCCGAGAUCGGAAGAGCACACGU
# Target: T1, EsCas13d, nuclease-dead
# Experiment: crRNA (strand 1, pre-loaded); Mg2+; 40 mM Tris-HCl pH 7.5, 150 mM NaCl, 6 mM MgCl2, 1 mM DTT, 0.1% Tween-20, 0.2 mg/ml BSA; 25 C; 10 min per concentration, then washed
# Conditions: tags: His6-TwinStrep-SUMO cleaved; N-terminal SNAP kept (SNAP-Surface 488); label: 3' end held by stalled T7 RNA polymerase
row,Binder,Kd [nM]
1,B1,~90.5
2,B2,22.2 ± 4.4
3,B3,23.7 ± 2.65
4,B4,17.8 ± 2.45
5,B5,68.5 ± 21.5
6,B6,~120
7,B7,9.2 ± 1.2
8,B8,15.5 ± 1.65
9,B9,37.1 ± 3.7
10,B10,62 ± 19.5
11,B11,59.5 ± 7.5
12,B12,106 ± 32
13,B13,14.8 ± 1.75
14,B14,17.4 ± 1.7
15,B15,18.7 ± 3.15
16,B16,59 ± 8.5
17,B17,98 ± 23
18,B18,57 ± 6
19,B19,65 ± 14
20,B20,27 ± 4.5
21,B21,62.4 ± 5.4
22,B22,130 ± 40
23,B23,7.75 ± 1.05
24,B24,83.5 ± 36.5
25,B25,78 ± 29.5
26,B26,11.9 ± 0.5
27,B27,70 ± 12
28,B28,20.5 ± 0.8
